Two proteins from patent US20160230171 can be followed below.

One series deals with T1, plakoglobin.
T1 chain: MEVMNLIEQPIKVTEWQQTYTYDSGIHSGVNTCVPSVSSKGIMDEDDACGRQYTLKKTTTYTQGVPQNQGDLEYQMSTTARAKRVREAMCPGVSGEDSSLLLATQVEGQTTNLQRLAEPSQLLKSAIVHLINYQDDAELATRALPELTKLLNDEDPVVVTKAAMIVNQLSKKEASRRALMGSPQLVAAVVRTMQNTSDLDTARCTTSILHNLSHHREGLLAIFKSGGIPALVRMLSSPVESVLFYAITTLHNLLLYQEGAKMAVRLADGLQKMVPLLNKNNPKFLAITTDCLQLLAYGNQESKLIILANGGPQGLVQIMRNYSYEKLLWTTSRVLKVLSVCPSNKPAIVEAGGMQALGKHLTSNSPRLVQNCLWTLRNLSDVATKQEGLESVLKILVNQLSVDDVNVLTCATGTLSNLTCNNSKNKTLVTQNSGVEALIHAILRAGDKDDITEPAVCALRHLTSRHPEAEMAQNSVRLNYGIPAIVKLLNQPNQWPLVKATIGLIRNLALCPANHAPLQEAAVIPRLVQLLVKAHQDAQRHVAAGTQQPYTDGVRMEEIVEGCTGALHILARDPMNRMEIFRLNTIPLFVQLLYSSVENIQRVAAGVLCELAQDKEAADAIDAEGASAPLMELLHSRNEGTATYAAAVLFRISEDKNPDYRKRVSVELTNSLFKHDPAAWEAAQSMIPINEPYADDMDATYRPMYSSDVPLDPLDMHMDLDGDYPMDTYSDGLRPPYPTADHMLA

The target in another series is T2, 6His-plakoglobin.
T2 chain: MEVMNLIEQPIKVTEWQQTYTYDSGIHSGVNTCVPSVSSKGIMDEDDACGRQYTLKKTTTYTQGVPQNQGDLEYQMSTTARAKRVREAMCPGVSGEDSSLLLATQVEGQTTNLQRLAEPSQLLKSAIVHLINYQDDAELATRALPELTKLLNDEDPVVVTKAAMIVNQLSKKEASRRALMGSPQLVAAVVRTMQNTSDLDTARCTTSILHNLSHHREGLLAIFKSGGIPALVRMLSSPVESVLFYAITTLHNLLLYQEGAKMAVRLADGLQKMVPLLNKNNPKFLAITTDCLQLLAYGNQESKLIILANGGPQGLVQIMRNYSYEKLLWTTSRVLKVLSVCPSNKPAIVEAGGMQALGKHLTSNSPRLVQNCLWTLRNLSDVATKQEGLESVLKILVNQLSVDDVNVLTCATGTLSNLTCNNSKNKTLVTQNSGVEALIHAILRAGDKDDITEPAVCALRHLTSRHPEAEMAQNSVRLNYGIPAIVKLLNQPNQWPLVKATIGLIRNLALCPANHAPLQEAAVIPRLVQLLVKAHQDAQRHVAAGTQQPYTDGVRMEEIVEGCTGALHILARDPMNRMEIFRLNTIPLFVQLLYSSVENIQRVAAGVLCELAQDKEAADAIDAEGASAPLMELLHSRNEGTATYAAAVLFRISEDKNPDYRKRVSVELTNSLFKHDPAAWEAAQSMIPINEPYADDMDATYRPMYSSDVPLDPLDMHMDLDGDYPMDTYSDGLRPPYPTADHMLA

B1: GST-Trim32 (protein)
chain: MAAAAAASHLNLDALREVLECPICMESFTEEQLRPKLLHCGHTICRQCLEKLLASSINGVRCPFCSKITRITSLTQLTDNLTVLKIIDTAGLSEAVGLLMCRGCGRRLPRQFCRSCGVVLCEPCREADHQPPGHCTLPVKEAAEERRRDFGEKLTRLRELTGELQRRKAALEGVSRDLQARYKAVLQEYGHEERRIQEELARSRKFFTGSLAEVEKSNSQVVEEQSYLLNIAEVQAVSRCDYFLAKIKQADVALLEETADEEEPELTASLPRELTLQDVELLKVGHVGPLQIGQAVKKPRTVNMEDSWAGEEGAASSASASVTFREMDMSPEEVAPSPRASPAKQRSSEAASGIQQCLFLKKMGAKGSTPGMFNLPVSLYVTSQSEVLVADRGNYRIQVFNRKGFLKEIRRSPSGIDSFVLSFLGADLPNLTPLSVAMNCHGLIGVTDSYDNSLKVYTMDGHCVACHRSQLSKPWGITALPSGQFVVTDVEGGKLWCFTVDRGAGVVKYSCLCSAVRPKFVTCDAEGTVYFTQGLGLNVENRQNEHHLEGGFSIGSVGPDGQLGRQISHFFSENEDFRCIAGMCVDARGDLIVADSSRKEILHFPKGGGYSVLIREGLTCPVGIALTPKGQLLVLDCWDHCVKIYSYHLRRYSTP
Regarding B1, in the series with plakoglobin, the “polyubiquitination in vitro (E1, UbcH5, ATP, 6His-ubiquitin; nickel column; mass spectrometry)” value is “plakoglobin was polyubiquitinated by Trim32 (as documented by the presence of 13 unique peptides)”.

B2: recombinant Trim32 (protein)
chain: MAAAAAASHLNLDALREVLECPICMESFTEEQLRPKLLHCGHTICRQCLEKLLASSINGVRCPFCSKITRITSLTQLTDNLTVLKIIDTAGLSEAVGLLMCRGCGRRLPRQFCRSCGVVLCEPCREADHQPPGHCTLPVKEAAEERRRDFGEKLTRLRELTGELQRRKAALEGVSRDLQARYKAVLQEYGHEERRIQEELARSRKFFTGSLAEVEKSNSQVVEEQSYLLNIAEVQAVSRCDYFLAKIKQADVALLEETADEEEPELTASLPRELTLQDVELLKVGHVGPLQIGQAVKKPRTVNMEDSWAGEEGAASSASASVTFREMDMSPEEVAPSPRASPAKQRSSEAASGIQQCLFLKKMGAKGSTPGMFNLPVSLYVTSQSEVLVADRGNYRIQVFNRKGFLKEIRRSPSGIDSFVLSFLGADLPNLTPLSVAMNCHGLIGVTDSYDNSLKVYTMDGHCVACHRSQLSKPWGITALPSGQFVVTDVEGGKLWCFTVDRGAGVVKYSCLCSAVRPKFVTCDAEGTVYFTQGLGLNVENRQNEHHLEGGFSIGSVGPDGQLGRQISHFFSENEDFRCIAGMCVDARGDLIVADSSRKEILHFPKGGGYSVLIREGLTCPVGIALTPKGQLLVLDCWDHCVKIYSYHLRRYSTP
Consider B2, for which, in the series with 6His-plakoglobin, the “polyubiquitination in vitro (Trim32, UbcH5, ubiquitin, ATP; Ni column; immunoblot with anti plakoglobin)” value is “recombinant Trim32 also polyubiquitinated 6His-plakoglobin, which was expressed and purified from normal muscle”.
